Legend:
[1] = biological target: T1, human MSLN-hFc protein (Acro, Cat. No. MSN-H5253) (human, UniProt Q13421 296-580); assay: ELISA on coated antigen, antibody 1 nM
T1 construct: the method names the coated protein as human MSLN-hFc (Acro); also called human MSLN full-length protein

[2] = biological target: T2, human MSLN-R3 protein (human, UniProt Q13421 487-598); assay: ELISA on coated antigen, antibody 1 nM
T2 construct: also called hMSLN-R3

[3] = biological target: T1, human MSLN-hFc protein (Acro, Cat. No. …); assay: ELISA on coated antigen, antibody 10 nM
[4] = biological target: T2, human MSLN-R3 protein; assay: ELISA on coated antigen, antibody 10 nM
[5] = biological target: T1, human MSLN-hFc protein (Acro, Cat. No. …); assay: ELISA on coated antigen, antibody 0.1 nM
[6] = biological target: T1, human MSLN-hFc protein (Acro, Cat. No. …); assay: ELISA on coated antigen, antibody 100 nM
[7] = biological target: T2, human MSLN-R3 protein; assay: ELISA on coated antigen, antibody 0.1 nM
[8] = biological target: T2, human MSLN-R3 protein; assay: ELISA on coated antigen, antibody 100 nM
[9] = biological target: T1, human MSLN-hFc protein (Acro, Cat. No. …); assay: ELISA on coated antigen, antibody 0.01 nM
[10] = biological target: T2, human MSLN-R3 protein; assay: ELISA on coated antigen, antibody 0.01 nM
[11] = biological target: T1, human MSLN-hFc protein (Acro, Cat. No. …); assay: ELISA on coated antigen, antibody 0.001 nM
[12] = biological target: T2, human MSLN-R3 protein; assay: ELISA on coated antigen, antibody 0.001 nM
[13] = biological target: T1, human MSLN-hFc protein (Acro, Cat. No. …); assay: ELISA on coated antigen, antibody 0.0001 nM
[14] = biological target: T2, human MSLN-R3 protein; assay: ELISA on coated antigen, antibody 0.0001 nM

T1 sequence (Q13421 other isoform, or with tags, fused parts or gaps limits assumed): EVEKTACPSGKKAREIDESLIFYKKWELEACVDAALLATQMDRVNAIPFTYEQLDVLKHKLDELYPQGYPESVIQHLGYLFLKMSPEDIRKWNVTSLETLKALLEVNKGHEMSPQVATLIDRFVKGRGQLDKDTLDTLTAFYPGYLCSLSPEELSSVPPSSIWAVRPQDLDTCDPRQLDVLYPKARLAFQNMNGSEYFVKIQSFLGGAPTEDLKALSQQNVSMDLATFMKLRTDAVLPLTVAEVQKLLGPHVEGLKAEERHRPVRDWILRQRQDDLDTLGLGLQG
T2 sequence (Q13421 495-606, form in doubt): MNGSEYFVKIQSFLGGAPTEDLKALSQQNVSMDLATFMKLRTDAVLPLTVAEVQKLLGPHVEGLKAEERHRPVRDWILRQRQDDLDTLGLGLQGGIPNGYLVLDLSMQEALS

| Binder | OD450 [1] | OD450 [2] | OD450 [3] | OD450 [4] | OD450 [5] | OD450 [6] | OD450 [7] | OD450 [8] | OD450 [9] | OD450 [10] | OD450 [11] | OD450 [12] | OD450 [13] | OD450 [14] |
| --- | --- | --- | --- | --- | --- | --- | --- | --- | --- | --- | --- | --- | --- | --- |
| F7.33.24-H2 (scFv, not shown: small tags and cut ends, also called S009-F7.33.24 humanized antibody VH1 + VL2) scFv: EVQLVQSGAEVKKPGASVKVSCKASGYTFTSYWMHWVRQAPGQRLEWMGNVNPSNGGSNYNEKFKNRVTITVDKSASTAYMELSSLRSEDTAVYYCAPHYIGSRPGFAYWGQGTLVTVSSGGGGSGGGGSGGGGSDIVMTQTPLSLSVTPGQPASISCKASQNVGTNIAWYLQKPGQSPQALIYSASYRYSGVPDRFSGSGSGTDFTLKISRVEAEDVGVYYCQQYNSYPLTFGGGTKVEIK | 0.4 OD450 | 0.42 OD450 | 2.07 OD450 | 1.62 OD450 | 0.08 OD450 | 2.91 OD450 | 0.06 OD450 | 1.9 OD450 | 0.05 OD450 | 0.04 OD450 | 0.05 OD450 | 0.04 OD450 | 0.05 OD450 | 0.04 OD450 |
| F7.33.24-H3 (scFv, not shown: small tags and cut ends, also called S009-F7.33.24 humanized antibody VH1 + VL3) scFv: EVQLVQSGAEVKKPGASVKVSCKASGYTFTSYWMHWVRQAPGQRLEWMGNVNPSNGGSNYNEKFKNRVTITVDKSASTAYMELSSLRSEDTAVYYCAPHYIGSRPGFAYWGQGTLVTVSSGGGGSGGGGSGGGGSDIVMTQTPLSLSVTPGQPASISCKASQNVGTNIAWYQQKPGQSPQALIYSASYRYSGVPDRFSGSGSGTDFTLKISRVEAEDVGVYYCQQYNSYPLTFGGGTKVEIK | 0.91 OD450 | 0.89 OD450 | 2.58 OD450 | 1.86 OD450 | 0.13 OD450 | 2.93 OD450 | 0.13 OD450 | 1.91 OD450 | 0.06 OD450 | 0.04 OD450 | 0.05 OD450 | 0.04 OD450 | 0.05 OD450 | 0.04 OD450 |
| F7.33.24-H1 (scFv, not shown: small tags and cut ends, also called S009-F7.33.24 humanized antibody VH1 + VL1) scFv: EVQLVQSGAEVKKPGASVKVSCKASGYTFTSYWMHWVRQAPGQRLEWMGNVNPSNGGSNYNEKFKNRVTITVDKSASTAYMELSSLRSEDTAVYYCAPHYIGSRPGFAYWGQGTLVTVSSGGGGSGGGGSGGGGSDIVMTQSPDSLAVSLGERATINCKASQNVGTNIAWYQQKPGQSPKALIYSASYRYSGVPDRFSGSGSGTDFTLTISSLQAEDVAVYYCQQYNSYPLTFGGGTKVEIK | 0.59 OD450 | 0.52 OD450 | 2.53 OD450 | 1.61 OD450 | 0.1 OD450 | 2.9 OD450 | 0.08 OD450 | 1.93 OD450 | 0.05 OD450 | 0.04 OD450 | 0.04 OD450 | 0.04 OD450 | 0.05 OD450 | 0.04 OD450 |
| F7.33.24-H4 (scFv, not shown: small tags and cut ends, also called S009-F7.33.24 humanized antibody VH1a + VL1) scFv: EVQLVQSGAEVKKPGASVKVSCKASGYTFTSYWMHWVRQAPGQRLEWMGNVNPSSGGSNYNEKFKNRVTITVDKSASTAYMELSSLRSEDTAVYYCAPHYIGSRPGFAYWGQGTLVTVSSGGGGSGGGGSGGGGSDIVMTQSPDSLAVSLGERATINCKASQNVGTNIAWYQQKPGQSPKALIYSASYRYSGVPDRFSGSGSGTDFTLTISSLQAEDVAVYYCQQYNSYPLTFGGGTKVEIK | 0.45 OD450 | 0.45 OD450 | 2.21 OD450 | 1.64 OD450 | 0.08 OD450 | 2.95 OD450 | 0.07 OD450 | 1.95 OD450 | 0.07 OD450 | 0.04 OD450 | 0.05 OD450 | 0.04 OD450 | 0.05 OD450 | 0.04 OD450 |

Continued, values first:

| OD450 [1] | OD450 [2] | OD450 [3] | OD450 [4] | OD450 [5] | OD450 [6] | OD450 [7] | OD450 [8] | OD450 [9] | OD450 [10] | OD450 [11] | OD450 [12] | OD450 [13] | OD450 [14] | Binder |
| --- | --- | --- | --- | --- | --- | --- | --- | --- | --- | --- | --- | --- | --- | --- |
| 0.48 OD450 | 0.63 OD450 | 2.04 OD450 | 1.92 OD450 | 0.09 OD450 | 2.7 OD450 | 0.09 OD450 | 2.16 OD450 | 0.05 OD450 | 0.05 OD450 | 0.05 OD450 | 0.04 OD450 | 0.05 OD450 | 0.05 OD450 | F7.33.24-H8 (scFv, not shown: small tags and cut ends, also called S009-F7.33.24 humanized antibody VH2 + VL2) scFv: EVQLVQSGAEVKKPGASVKVSCKASGYTFTSYWMHWVRQAPGQGLEWMGNVNPSNGGSNYNEKFKNRVTITVDKSASTAYMELSSLRSEDTAVYYCAPHYIGSRPGFAYWGQGTLVTVSSGGGGSGGGGSGGGGSDIVMTQTPLSLSVTPGQPASISCKASQNVGTNIAWYLQKPGQSPQALIYSASYRYSGVPDRFSGSGSGTDFTLKISRVEAEDVGVYYCQQYNSYPLTFGGGTKVEIK |
| 0.66 OD450 | 0.82 OD450 | 2.49 OD450 | 2.08 OD450 | 0.1 OD450 | 2.78 OD450 | 0.11 OD450 | 2.25 OD450 | 0.05 OD450 | 0.05 OD450 | 0.04 OD450 | 0.04 OD450 | 0.05 OD450 | 0.04 OD450 | F7.33.24-H9 (scFv, not shown: small tags and cut ends, also called S009-F7.33.24 humanized antibody VH2 + VL3) scFv: EVQLVQSGAEVKKPGASVKVSCKASGYTFTSYWMHWVRQAPGQGLEWMGNVNPSNGGSNYNEKFKNRVTITVDKSASTAYMELSSLRSEDTAVYYCAPHYIGSRPGFAYWGQGTLVTVSSGGGGSGGGGSGGGGSDIVMTQTPLSLSVTPGQPASISCKASQNVGTNIAWYQQKPGQSPQALIYSASYRYSGVPDRFSGSGSGTDFTLKISRVEAEDVGVYYCQQYNSYPLTFGGGTKVEIK |
| 0.45 OD450 | 0.53 OD450 | 2.36 OD450 | 1.74 OD450 | 0.08 OD450 | 2.96 OD450 | 0.07 OD450 | 1.98 OD450 | 0.05 OD450 | 0.04 OD450 | 0.05 OD450 | 0.04 OD450 | 0.05 OD450 | 0.04 OD450 | F7.33.24-H6 (scFv, not shown: small tags and cut ends, also called S009-F7.33.24 humanized antibody VH1a + VL3) scFv: EVQLVQSGAEVKKPGASVKVSCKASGYTFTSYWMHWVRQAPGQRLEWMGNVNPSSGGSNYNEKFKNRVTITVDKSASTAYMELSSLRSEDTAVYYCAPHYIGSRPGFAYWGQGTLVTVSSGGGGSGGGGSGGGGSDIVMTQTPLSLSVTPGQPASISCKASQNVGTNIAWYQQKPGQSPQALIYSASYRYSGVPDRFSGSGSGTDFTLKISRVEAEDVGVYYCQQYNSYPLTFGGGTKVEIK |
| 0.33 OD450 | 0.39 OD450 | 1.91 OD450 | 1.53 OD450 | 0.07 OD450 | 2.85 OD450 | 0.06 OD450 | 1.92 OD450 | 0.04 OD450 | 0.04 OD450 | 0.05 OD450 | 0.04 OD450 | 0.05 OD450 | 0.04 OD450 | F7.33.24-H5 (scFv, not shown: small tags and cut ends, also called S009-F7.33.24 humanized antibody VH1a + VL2) scFv: EVQLVQSGAEVKKPGASVKVSCKASGYTFTSYWMHWVRQAPGQRLEWMGNVNPSSGGSNYNEKFKNRVTITVDKSASTAYMELSSLRSEDTAVYYCAPHYIGSRPGFAYWGQGTLVTVSSGGGGSGGGGSGGGGSDIVMTQTPLSLSVTPGQPASISCKASQNVGTNIAWYLQKPGQSPQALIYSASYRYSGVPDRFSGSGSGTDFTLKISRVEAEDVGVYYCQQYNSYPLTFGGGTKVEIK |
| 0.48 OD450 | 0.33 OD450 | 2.32 OD450 | 1.52 OD450 | 0.1 OD450 | 2.79 OD450 | 0.06 OD450 | 1.95 OD450 | 0.05 OD450 | 0.04 OD450 | 0.06 OD450 | 0.04 OD450 | 0.05 OD450 | 0.04 OD450 | F7.33.24-H7 (scFv, not shown: small tags and cut ends, also called S009-F7.33.24 humanized antibody VH2 + VL1) scFv: EVQLVQSGAEVKKPGASVKVSCKASGYTFTSYWMHWVRQAPGQGLEWMGNVNPSNGGSNYNEKFKNRVTITVDKSASTAYMELSSLRSEDTAVYYCAPHYIGSRPGFAYWGQGTLVTVSSGGGGSGGGGSGGGGSDIVMTQSPDSLAVSLGERATINCKASQNVGTNIAWYQQKPGQSPKALIYSASYRYSGVPDRFSGSGSGTDFTLTISSLQAEDVAVYYCQQYNSYPLTFGGGTKVEIK |
| 0.51 OD450 | 0.55 OD450 | 2.28 OD450 | 1.85 OD450 | 0.09 OD450 | 3.03 OD450 | 0.08 OD450 | 2.26 OD450 | 0.05 OD450 | 0.04 OD450 | 0.04 OD450 | 0.05 OD450 | 0.04 OD450 | 0.05 OD450 | F7.33.24-H10 (scFv, not shown: small tags and cut ends, also called S009-F7.33.24 humanized antibody VH2a + VL1) scFv: EVQLVQSGAEVKKPGASVKVSCKASGYTFTSYWMHWVRQAPGQGLEWMGNVNPSNAGSNYNEKFKNRVTITVDKSASTAYMELSSLRSEDTAVYYCAPHYIGSRPGFAYWGQGTLVTVSSGGGGSGGGGSGGGGSDIVMTQSPDSLAVSLGERATINCKASQNVGTNIAWYQQKPGQSPKALIYSASYRYSGVPDRFSGSGSGTDFTLTISSLQAEDVAVYYCQQYNSYPLTFGGGTKVEIK |
